Source: article doi:10.1101/2021.07.08.451689 (bioRxiv, 2021)

Target: the molecule itself
Experiment: SEC

B1: MLKL N-terminal domain of 154 amino acid residues with mutation D144K (domain or fragment, human, UniProt Q8NB16 1-154, looked up)
chain: MENLKHIITLGQVIHKRCEEMKYCKKQCRRLGHRVLGLIKPLEMLQDQGKRSVPSEKLTTAMNRFKAALEEANGEIEKFSNRSNICRFLTASQDKILFKDVNRKLSDVWKELSLLLQVEQRMPVSPISQGASWAQEDQQDADEKRRAFQMLRRD
- binding result: binds

B2: MLKL N-terminal domain of 139 amino acid residues (domain or fragment, human, UniProt Q8NB16 1-139, looked up)
chain: MENLKHIITLGQVIHKRCEEMKYCKKQCRRLGHRVLGLIKPLEMLQDQGKRSVPSEKLTTAMNRFKAALEEANGEIEKFSNRSNICRFLTASQDKILFKDVNRKLSDVWKELSLLLQVEQRMPVSPISQGASWAQEDQQ
- binding result: binds
